# Measurements from patent publication US20100168020A1 (Amgen, published 2010).
# T1: myostatin (human, UniProt O14793 267-375)
# T1 sequence: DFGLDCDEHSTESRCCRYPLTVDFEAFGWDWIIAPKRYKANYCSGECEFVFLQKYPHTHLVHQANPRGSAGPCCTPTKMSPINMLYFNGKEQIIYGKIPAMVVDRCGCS
# T2: activin A (Homo sapiens (Human), UniProt P08476 311-426)
# T2 sequence: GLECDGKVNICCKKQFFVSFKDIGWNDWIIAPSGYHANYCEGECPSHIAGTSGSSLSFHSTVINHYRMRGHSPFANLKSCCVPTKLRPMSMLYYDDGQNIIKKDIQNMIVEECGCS
# Legend:
# [1] = target: GDF-11 (Homo sapiens (Human)) (UniProt O95390); assay: cell-based or functional assay
# myostatin [2] = target: T1, myostatin; assay: cell-based or functional assay
# activin A [3] = target: T2, activin A; assay: cell-based or functional assay
# [4] = target: GDF-11 (Homo sapiens (Human)) (UniProt O95390); assay: KinExA solution equilibrium, ligand-coated beads, Cy5 anti-human Fc detection
# myostatin [5] = target: T1, myostatin; assay: as above
# Experimental: (§1) Solution-based equilibrium-binding assays using KinExA™ technology (Sapidyne Instruments, Inc.) were used to determine the dissociation equilibrium (KD) of ligand binding to ActRIIB-Fc polypeptides. UltraLink Biosupport beads (Pierce) was pre-coated with about 100 μg/ml each of myostatin, GDF-11, and activin A overnight, and then blocked with BSA. 1 pM and 3 pM of ActRIIB-Fc (E28W) (SEQ ID NO: 21) and svActRIIB-Fc (E28W, S44T) (SEQ ID NO: 10) samples were incubated with various concentrations (0.7 fM to 160 pM) of myostatin, activin A, and GDF-11 respectively in sample buffer at room temperature for 8 hours before being run through the ligand-coated beads. The amount of the bead-bound soluble receptor was quantified by fluorescent (Cy5) labeled goat anti-human-Fc antibody at 1 mg/ml in superblock. The binding signal is proportional to the concentration of free soluble receptor at equilibrium with a given myostatin, activin A, or GDF-11 concentration. KD was obtained from the nonlinear regression of the competition curves using a dual-curve one-site homogeneous binding model provided in the KinEx A™ software (Sapidyne Instruments, Inc.).
# activin A [6] = target: T2, activin A; assay: as above
# Experimental: as §1
Binder,"IC50, luciferase activity of C2C12/pMARE-luc reporter cells at 4 nM ligand [1] [nM]","IC50, luciferase activity of C2C12/pMARE-luc reporter cells at 4 nM ligand (myostatin [2]) [nM]","IC50, luciferase activity of C2C12/pMARE-luc reporter cells at 4 nM ligand (activin A [3]) [nM]",Kd [4] [pM],Kd (myostatin [5]) [pM],Kd (activin A [6]) [pM]
"ActRIIB-Fc (E28W) (Fc fusion, also called ActRIIB-IgG2Fc (E28W); ActRIIB-IgG Fc (E28W)) ETRWCIYYNANWELERTNQSGLERCEGEQDKRLHCYASWRNSSGTIELVKKGCWLDDFNCYDRQECVATEENPQVYFCCCEGNFCNERFTHLPEAGGPEVTYEPPPTAPTGGGGSVECPPCPAPPVAGPSVFLFPPKPKDTLMISRTPEVTCVVVDVSHEDPEVQFNWYVDGVEVHNAKTKPREEQFNSTFRVVSVLTVVHQDWLNGKEYKCKVSNKGLPAPIEKTISKTKGQPREPQVYTLPPSREEMTKNQVSLTCLVKGFYPSDIAVEWESNGQPENNYKTTPPMLDSDGSFFLYSKLTVDKSRWQQGNVFSCSVMHEALHNHYTQKSLSLSPGK",2.4,0.95,3.2,0.1,0.1,0.2
"svActRIIB-Fc (E28W, S44T) (Fc fusion, Made in 293-6E or CHO cells; also called svActRIIB-IgG2Fc (E28W, S44T); svActRIIB-IgG Fc (E28W, S44T)) ETRWCIYYNANWELERTNQTGLERCEGEQDKRLHCYASWRNSSGTIELVKKGCWLDDFNCYDRQECVATEENPQVYFCCCEGNFCNERFTHLPEAGGPEVTYEPPPTAPTGGGGSVECPPCPAPPVAGPSVFLFPPKPKDTLMISRTPEVTCVVVDVSHEDPEVQFNWYVDGVEVHNAKTKPREEQFNSTFRVVSVLTVVHQDWLNGKEYKCKVSNKGLPAPIEKTISKTKGQPREPQVYTLPPSREEMTKNQVSLTCLVKGFYPSDIAVEWESNGQPENNYKTTPPMLDSDGSFFLYSKLTVDKSRWQQGNVFSCSVMHEALHNHYTQKSLSLSPGK",2.4,1.07,3.6,0.1,0.1,0.1
